One may read the IC50 as the concentration needed to halve the response being measured. What is called EC50 is the concentration needed to bring the measured effect to its halfway point. Broadly, the kon is a measure of how fast the partners come together. The koff is the rate constant with which the complex falls apart.

From patent publication US20220242939A1 (BIOARCTIC, published 2022) come the findings set out here.

Non-standard residues stand in square brackets, D forms with d. No end group written: not given here. Ahx = NCCCCCC(=O)O

For assay [1], the target named is 7C7, recombinant IgG2c antibody. Briefly: inhibition ELISA: antigen in solution varied, antibody 7C7 at 0.05 µg/ml, plate coated with G200-BSA peptide. The protocol: (§1) The pre-incubated samples were transferred (50 μl/well) to the blocked ELISA plates, and plates were incubated for 25 min at room temperature without shaking. Plates were washed as described above. Alkaline phosphatase conjugated anti-mouse IgG detection antibody (Mabtech, cat. no. 3310-4) was diluted 1:1000 and added to each plate (50 μl/well). The plate was sealed and incubated with shaking (900 rpm) for 45 min at room temperature and subsequently washed as described above. Alkaline phosphatase substrate (50 μl/well) was added to the plate and the optical density was read every 15 min at a wavelength of 405 nm for up to 120 min. The IC50 values were determined from a log inhibitor concentration response curve (FIG. 17).
Chain of 7C7, recombinant IgG2c antibody (VH, as listed by the source, chain 1 of 2): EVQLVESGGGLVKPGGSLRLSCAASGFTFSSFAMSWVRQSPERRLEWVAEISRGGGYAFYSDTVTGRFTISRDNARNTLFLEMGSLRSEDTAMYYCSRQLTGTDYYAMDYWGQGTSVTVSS
Chain of 7C7, recombinant IgG2c antibody (VL, as listed by the source, chain 2 of 2): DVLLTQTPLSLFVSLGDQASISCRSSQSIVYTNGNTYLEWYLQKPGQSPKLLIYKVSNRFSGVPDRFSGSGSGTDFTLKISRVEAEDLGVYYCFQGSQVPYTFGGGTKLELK
In general terms: An ELISA detects its analyte on a solid surface through an enzyme-linked reagent.

Assay [2] has as its target 17G4, recombinant IgG2c antibody. The assay is described as follows: inhibition ELISA: antigen in solution varied, antibody 17G4 at 0.05 µg/ml, plate coated with G200-BSA peptide. The protocol:
as §1

The target of assay [3] is 23D5, recombinant IgG2c antibody. Briefly: inhibition ELISA: antigen in solution varied, antibody 23D5 at 0.05 µg/ml, plate coated with G200-BSA peptide. The protocol: as §1
Chain of 23D5, recombinant IgG2c antibody (VH, as listed by the source): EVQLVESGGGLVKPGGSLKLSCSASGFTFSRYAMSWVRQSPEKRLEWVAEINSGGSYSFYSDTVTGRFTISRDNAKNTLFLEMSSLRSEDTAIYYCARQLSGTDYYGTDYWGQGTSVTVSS
Assay [4] deals with 28F2, recombinant IgG2c antibody. Briefly: inhibition ELISA: antigen in solution varied, antibody 28F2 at 0.05 µg/ml, plate coated with G200-BSA peptide. As for the experimental part: […] of each synthetic ApoE peptide, recombinant C-terminal ApoE fragment G200-HIS and full-length ApoE4 were prepared by 4-fold dilution starting from 1000 ng/ml in 96 well storage plates (30 μl final volume). Each recombinant antibody to be tested was added (30 μl) to the serial dilutions of each of the synthetic ApoE peptides, G200-HIS or full-length ApoE4 at a final concentration of 0.05 μg/ml per well. Samples were pre-incubated for 45 min at room temperature with shaking (900 rpm).
Chain of 28F2, recombinant IgG2c antibody (VH, as listed by the source): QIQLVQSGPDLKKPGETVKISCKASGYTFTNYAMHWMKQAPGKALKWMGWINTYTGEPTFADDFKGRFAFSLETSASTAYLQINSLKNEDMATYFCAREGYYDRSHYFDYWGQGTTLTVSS
as §1

For assay [5], the target named is T1, 7B10, recombinant IgG2c antibody.
T1 construct: also called 7610
T1 sequence (VH, as listed by the source): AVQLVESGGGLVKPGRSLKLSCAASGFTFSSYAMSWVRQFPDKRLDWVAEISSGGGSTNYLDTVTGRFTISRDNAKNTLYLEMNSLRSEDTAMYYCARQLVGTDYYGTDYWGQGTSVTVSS
The assay is described as follows: inhibition ELISA: antigen in solution varied, antibody 7B10 at 0.05 µg/ml, plate coated with G200-BSA peptide. As for the experimental part: as §1

The target of assay [6] is T2, A199 N-terminal neo-epitope peptide AGQPLQE-Acp-C (SEQ ID NO:55) conjugated to BSA (human, not fully specified (residue 9); printed as AGQPLQE-Acp-C; also: C-terminal Cys conjugated to BSA carrier).
T2 construct: BSA carrier
T2 peptide: AGQPLQE[Ahx]C
Briefly: direct ELISA after limiting dilution.

Assay [7] deals with T3, recombinant C-terminal ApoE fragment A199-HIS (ApoE-A199-H299-10xHIS) (human, UniProt P02649 217-317).
T3 construct: also called A199-HIS fragment
The assay is described as follows: direct ELISA, A199-HIS coated at 0.1 µM. The protocol:
(§2) Selectivity evaluation of purified monoclonal antibodies by direct ELISA: The direct ELISA described below was used to evaluate the binding selectivity of the purified monoclonal antibodies produced in Example 17.
(§3) The screening was performed according to standard ELISA protocols. Briefly, 1 μg/ml solutions of BSA-conjugated neo-epitope peptides and negative control peptide, and 0.1 μM recombinant C-terminal ApoE fragment and full-length ApoE (Abcam, cat. no. ab50243) were prepared by dilution in PBS. 50 μl/well were added to an ELISA half-area 96 well microtiter plate, and the plate was sealed with adhesive sealer and incubated over night at 4° C. After discarding the solution, the plates were blocked with 150 μl/well of protein-free blocking solution (Pierce) for 1 h at room temperature with shake (600-900 rpm). The plates were washed four times with washing buffer containing 0.28 mM NaH₂PO₄, 2.5 mM Na₂HPO₄, 150 mM NaCl, 0.1% TWEEN®-20 and 0.0075% Kathon CG. Purified monoclonal antibodies of interest were 3-fold serially diluted with a starting dilution at 3 μg/ml (mixed 1:2 with dilution buffer (PBS with 0.1% BSA and 0.05% TWEEN®-20)). An anti-ApoE C-terminal antibody was used as a reference antibody (ApoE E-8 mouse monoclonal, Santa Cruz Biotechnology, cat. no. sc-393302). 50 μl/well were added into the ELISA plates and incubated for 2 h at room temperature with shake (600-900 rpm). The plates were washed four times as described previously. […] After another wash (as described previously), 50 μl/well of K-Blue® aqueous substrate (Neogen) were added, and the reaction was stopped after 5-15 min with 50 μl/well of 0.5 M H₂SO₄. The optical density at 450 nm was read using an ELISA reader (Tecan).

The target of assay [8] is T4, A199 N-terminal neo-epitope peptide AGQPLQ-Acp-C (SEQ ID NO:51) conjugated to BSA (human, not fully specified (residue 8); printed as AGQPLQ-Acp-C; also: C-terminal Cys conjugated to BSA carrier).
T4 construct: BSA carrier; also called A199-BSA peptide
T4 peptide: AGQPLQ[Ahx]C
Briefly: direct ELISA, A199-BSA peptide coated at 1 µg/ml. The protocol: as §2, §3

The target in assay [9] is T5, full-length ApoE in human brain extract from Alzheimer's disease patients (human, UniProt P02649 19-317).
T5 construct: mature; Endogenous protein on Western blot or in solution (IP); also called ApoE full-length protein
T5 sequence (P02649 19-317): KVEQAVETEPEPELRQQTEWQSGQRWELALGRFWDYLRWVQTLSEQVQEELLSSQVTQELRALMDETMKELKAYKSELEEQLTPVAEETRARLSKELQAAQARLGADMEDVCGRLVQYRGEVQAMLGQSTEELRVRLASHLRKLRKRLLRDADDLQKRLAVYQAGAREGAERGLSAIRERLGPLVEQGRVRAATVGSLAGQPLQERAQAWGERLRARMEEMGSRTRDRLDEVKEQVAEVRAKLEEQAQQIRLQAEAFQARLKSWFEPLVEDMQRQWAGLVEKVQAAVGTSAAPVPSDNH
The assay is described as follows: Western blot of AD brain RIPA 2% SDS extract; anti-A199 antibody at 2 ug/ml as primary antibody. The protocol:
RIPA 2% SDS brain extract containing approximately 60 μg total protein was mixed with 2×Laemmli sample buffer, boiled for 5 min at 95° C. and loaded onto SDS-PAGE gels (Bolt™ 12% Bis-Tris Plus 10 well, Thermo Fisher, cat. no. NW00120BOX). Gels were run for 30-40 min at 180 V, after which proteins were transferred from the gels onto nitrocellulose membranes using the Trans-Blot® Turbo™ system (Bio-Rad). […] Membranes were washed and incubated for 1 h at room temperature with the detection antibody anti-mouse-800CW (LI-COR, cat. no. 925-32210) diluted 1:25000 in Intercept® PBS Blocking Buffer (LI-COR) with 0.1% TWEEN®-20. Membranes were washed and images acquired using Odyssey® FC (LI-COR).
Background: In western blotting, separated proteins are transferred to a membrane and probed.

Assay [10] has as its target T6, G200 N-terminal neo-epitope peptide GQPLQE-Acp-C (SEQ ID NO:50) conjugated to BSA (human, not fully specified (residue 8); printed as GQPLQE-Acp-C; also: C-terminal Cys conjugated to BSA carrier).
T6 construct: also called G200-BSA peptide; G200-peptide
T6 peptide: GQPLQE[Ahx]C
The assay is described as follows: direct ELISA; proteins coated at 0.1 uM, BSA peptides at 1 ug/ml; antibody in 3-fold dilutions from 3000 ng/ml; blank reduced OD 450 nm. As for the experimental part: as §2, §3

Assay [11] addresses T7, recombinant full-length ApoE4 (aa 1-299; SEQ ID NO:45; Abcam cat. no. ab50243) (human, UniProt P02649 19-317).
T7 construct: Bought protein; also called recombinant ApoE4 full-length protein
Described as above. The protocol: as §2, §3

Assay [12] addresses T8, L198 N-terminal neo-epitope peptide LAGQPL-Acp-C (SEQ ID NO:52) conjugated to BSA (human, not fully specified (residue 8); printed as LAGQPL-Acp-C; also: C-terminal Cys conjugated to BSA carrier).
T8 construct: BSA carrier; also called L198-BSA peptide
T8 peptide: LAGQPL[Ahx]C
The assay is described as above. As for the experimental part: as §2, §3

Assay [13] has as its target T9, negative control peptide AATVGSLAGQPLQER-Acp-C (SEQ ID NO:53) conjugated to BSA (human, not fully specified (residue 17); printed as AATVGSLAGQPLQER-Acp-C; also: C-terminal Cys conjugated to BSA carrier).
T9 construct: BSA carrier; also called 192-206 BSA-conjugated peptide
T9 peptide: AATVGSLAGQPLQER[Ahx]C
The description is as above. The protocol: as §2, §3

For assay [14], the target named is T3, recombinant C-terminal ApoE fragment …. Briefly: SPR (Biacore 8K), A199-HIS amine-coupled on CM5, antibody as analyte, bivalent analyte fit (KD1).
For assay [15] the target is unchanged. Briefly: SPR (Biacore 8K), A199-HIS amine-coupled on CM5, antibody as analyte, bivalent analyte fit (ka1). (In general: SPR reads the build-up and loss of mass on a sensor chip optically.)
For assay [16] the target is unchanged. The assay is described as follows: SPR (Biacore 8K), A199-HIS amine-coupled on CM5, antibody as analyte, bivalent analyte fit (kd1).

T7 sequence (P02649 19-317 C130R limits assumed): as the sequence (P02649 19-317) above, with C112R counted along it
Chain of 17G4, recombinant IgG2c antibody (VH, as listed by the source): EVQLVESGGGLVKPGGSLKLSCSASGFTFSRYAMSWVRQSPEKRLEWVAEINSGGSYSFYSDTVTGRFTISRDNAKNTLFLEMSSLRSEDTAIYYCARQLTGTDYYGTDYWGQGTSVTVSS

B1: recombinant C-terminal ApoE fragment G200-HIS (ApoE-G200-H299-10xHIS) (other)
chain: GQPLQERAQAWGERLRARMEEMGSRTRDRLDEVKEQVAEVRAKLEEQAQQIRLQAEAFQARLKSWFEPLVEDMQRQWAGLVEKVQAAVGTSAAPVPSDNHHHHHHHHHHH
notes: also called G200-HIS fragment
For the molecule B1, the IC50 was 2.8 nM in [1]; 3 nM in assay [2]; 2.4 nM in [3]; 2.4 nM in [4]; 2.8 nM in [5].

B2: 36A12, monoclonal anti-A199 antibody (antibody, IgG1, V domains shown)
VH: EVKLEESGGGLVQPGGSMKLSCVASGFTFSNYWMNWVRQSPEKGLEWIGEIKLKSNNYGTHYAESVKGRFTISRDDSKSSVYLQMNNLRAEDTGIYYCTRDTEVVAGAHWGQGTLVTVSA
VL: NIMMTQSPSSLAVSAGEKVTMSCKSSQSVLYNSNQKNYLAWYQQKPGQSPKLLIYWASTRDSGVPDRFTGSGSGTDFTLTISSVRAEDLAVYFCQQYLSSLTFGAGTKLELK
For the molecule B2, the binding result in assay [6] is reported as “binds”; in [9], “no binding (tested: 2 ug/ml (text))”; in assay [10] it was “no binding (tested: 3000 ng/ml)”; in assay [11] it was “no binding (tested: 3000 ng/ml)”; in assay [12], “no binding (tested: 3000 ng/ml)”; in [13], “no binding (tested: 3000 ng/ml)”. Further, the concentration for a half-maximal effect (EC50) is 20.2 ng/mL in [7] and 5.1 ng/mL in [8].

B3: 38G9, monoclonal anti-A199 antibody (antibody, IgG1, V domains shown)
VH: EVKLEESGGGLVQPGGSMKLSCVASGFTFSNYWMNWVRQSPEKGLEWVGEIKLKSNNYGTHYAESVKGRFTISRDDSKSSVYLQMNNLRAEDTGIYYCTRDTEVVAGAHWGQGTLVTVSA
VL: NIMMTQSPSSLAVSAGEKVTMSCKSSQSVLYSSNQKNYLAWYQQKPGQSPKLLIYWASTRESGVPDRFTGSGSGTDFTLTISSVQAEDLAVYFCQQYLSSLTFGAGTKLELK
On to B3, for which the binding result in assay [6] is “binds”; in [9], “no binding (tested: 2 ug/ml (text))”; in assay [10], “no binding (tested: 3000 ng/ml)”; in [11], “no binding (tested: 3000 ng/ml)”; in [12] it was “no binding (tested: 3000 ng/ml)”; in [13], “no binding (tested: 3000 ng/ml)”. In addition, the EC50 was 39.7 ng/mL in assay [7] and 4.6 ng/mL in [8].

B4: 63F6, monoclonal anti-A199 antibody (antibody, IgG2b, V domains shown)
VH: QVQLQQPGTELVKPGASVKLSCKASGYTFTNYWMHWVKQRPGQGLEWIGNINPRNGGTNYNEKFKSKATLTVDKSSSTDYMQLSSLTSEDSAVYYCARGLYDYDFDYWGQGTTLTVSS
VL: DVLMTQTPLSLPVSLGDQASISCRSSQSIVHGNGNTYLQWFLQKPGQSPKLLIYKVSSRFSGVPDRFSGSGSGTDFTLKISRVEAEDLGVYYCFQGSHVPFTFGSGTKLEIK
In the case of B4, the binding result in [6] is on record as “binds”; in assay [9], “no binding (tested: 2 ug/ml (text))”; in [11] it was “no binding (tested: 3000 ng/ml)”; in assay [12], “no binding (tested: 3000 ng/ml)”. Besides, the figures for the concentration giving a half-maximal response (EC50) in [7] and in assay [8] were 1.8 ng/mL and 3.8 ng/mL, respectively. For the same molecule, the Kd in [14] is 137 nM. Moreover, in [15], the association rate constant (kon) was determined as 150000 M⁻¹ s⁻¹. The off-rate constant (koff) in assay [16] was determined as 0.0207 s⁻¹.

B5: 67G3, monoclonal anti-A199 antibody (antibody, IgG2b, V domains shown)
VH: QVQLQQPGTELVKPGASVKLSCKASGYTFTRYWLHWVKQRPGQGLEWIGNINPTNGGANYNEKFKNKATLTVDKSSSTAYMQLSSLTSEDSAVYYCSRGAYDYDCDYWGQGTTLTVSS
VL: DVLMTQTPLSLPVSLGDQASISCRSSQRIVHSNGNIYLQWYLQKPGQSPKLLIYKVSNRFSGVPDRFSGSGSGTDFTLKISRVEAEDLGVYYCFQGSHVPYTFGGGTKLEIK
On to B5, for which the figures for the binding result in [6], in assay [9] and in assay [11] were “binds”, “no binding (tested: 2 ug/ml (text))” and “no binding (tested: 3000 ng/ml)”, respectively. Besides, the EC50 in [7] stood at 3.5 ng/mL; in [8], 4.4 ng/mL. Further, the Kd in assay [14] was 83 nM. Also, the kon in [15] was 180000 M⁻¹ s⁻¹. For the same molecule, the koff in assay [16] was found to be 0.0172 s⁻¹.
